Changes are numbered by the printed parent chain.
B1: G1098, P0DOX5 218-449 (Fc fusion)
chain: EPKSCDKTHTCPPCPAPELLGGPSVFLFPPKPKDTLMISRTPEVTCVVVDVSHEDPEVKFNWYVDGVEVHNAKTKPREEQYNSAYRVVSVLTVLHQDWLNGKEYKCKVSNKALPAPIEKTISKAKGQPREPQVYTLPPSREEMTKNQVSLTCLVKGFYPSDIAVEWESNGQPENNYKTTPPVLDSDGSFFLYSKLTVDKSRWQQGNVFSCSVMHGALHNHYTQKYLSLSPGKERKCCVECPPCP
B2: G1126, P0DOX5 218-449 (Fc fusion)
chain: B1 chain with E130R

Biological target: complement proteins
Test: cell-based or functional assay

Row | Binder | CDC inhibition IC50 (anti-CD20-coated Will-2 cells plus serum) [µg/mL]
1 | B1 | 10
2 | B2 | 5
